According to patent US20050182242A1, “Global analysis of protein activities using proteome chips” (priority 2001, published 2005):

B1: xrs2p: yeast DNA-repair protein (protein, UniProt P33301 1-854, looked up)
DNA repair protein XRS2: MWVVRYQNTLEDGSISFISCCLQAFKTYSIGRSSKNPLIIKNDKSISRQHITFKWEINNSSDLKHSSLCLVNKGKLTSLNKKFMKVGETFTINASDVLKSTIIELGTTPIRIEFEWINEVWNIPPHLTQFRTMLSEYGISTEISINDIPANLMISDYPKSEDNSIRELYALVSTIPMKKSRFLMELCNTLLPTSKTNLKFDEMWNDMISNPEYNVFDFDPNILLSKFMRLNNIRVLTTIKSEPRLSSLLRTFNINLFAFDNIDSLYKYVDSLEASTEYLILTTTDKKENGKILCTIKTMLTSIIDGTLSAVINMKGASSRTLDNGKFDQISEGMSTILKTSRAPEVEASPVVSKKRKLNRRRVLPLDSLDFFAGGLSTKTLSENRSLTDAKRLNCGAESKTVISSPNIAEADEKHAPFLQNALKPTEDIGKKSGHSSPGAIIVSSPNLGTVNTSEDSLDKSLQSHKLPQPSLPEVAGIGSQTISSNSADYETAAVNSMDDAEVTKNFRVNHHQNIEQPSKNIRKLSNYSREISSPLQENCKSPVKELSIKEKSGTPHAFVEAIQETKNREVKRVKSTIVELKDEELSEEAINQLKNLAIVEPSNNLLRKSFDSEGNKTSRTTEKWENSLMEPEWHKRKNFKTFVKVRPKSKAHKEEGKNNTQSSDFIRNAAFLITRNYVPLKKYSKKDTTTKWGTEENEDMFALTEMERFGSNTFMSDNINSNTIQKRSQALNRFTNEDSSNEGEEDSFSFSRCSGTAASVQPLKNKIFITDEDDLGDIDDKSDRLNHRENNRNLFVVKEMNLRPNLSEECSKQSRHSRSATSRSRGSFGASNNGDGDDDDDDGPKFTFKRRKG
B2: Rad51p: yeast DNA-repair protein (protein, UniProt P25454 1-400, looked up)
DNA repair protein RAD51: MSQVQEQHISESQLQYGNGSLMSTVPADLSQSVVDGNGNGSSEDIEATNGSGDGGGLQEQAEAQGEMEDEAYDEAALGSFVPIEKLQVNGITMADVKKLRESGLHTAEAVAYAPRKDLLEIKGISEAKADKLLNEAARLVPMGFVTAADFHMRRSELICLTTGSKNLDTLLGGGVETGSITELFGEFRTGKSQLCHTLAVTCQIPLDIGGGEGKCLYIDTEGTFRPVRLVSIAQRFGLDPDDALNNVAYARAYNADHQLRLLDAAAQMMSESRFSLIVVDSVMALYRTDFSGRGELSARQMHLAKFMRALQRLADQFGVAVVVTNQVVAQVDGGMAFNPDPKKPIGGNIMAHSSTTRLGFKKGKGCQRLCKVVDSPCLPEAECVFAIYEDGVGDPREEDE
B3: Spt2p: transcription factor, negative regulator of HO gene transcription (protein, UniProt P06843 2-333, looked up)
Protein SPT2: SFLSKLSQIRKSTTASKAQVQDPLPKKNDEEYSLLPKNYIRDEDPAVKRLKELRRQELLKNGALAKKSGVKRKRGTSSGSEKKKIERNDDDEGGLGIRFKRSIGASHAPLKPVVRKKPEPIKKMSFEELMKQAENNEKQPPKVKSSEPVTKERPHFNKPGFKSSKRPQKKASPGATLRGVSSGGNSIKSSDSPKPVKLNLPTNGFAQPNRRLKEKLESRKQKSRYQDDYDEEDNDMDDFIEDDEDEGYHSKSKHSNGPGYDRDEIWAMFNRGKKRSEYDYDELEDDDMEANEMEILEEEEMARKMARLEDKREEAWLKKHEEEKRRRKKGIR
B4: Cdc1p: yeast DNA-repair protein (protein, UniProt P40986 1-491, looked up)
Cell division control protein …: MVYRNRSKSVLSTHSKKSDDKAHYKSRSKKKSKSRSKKRLRIYWRYISIVWILWLGLISYYESVVVKRAMKKCQWSTWEDWPEGAESHRVGLFADPQIMDEYSYPGRPQIVNYFTRVIVDHYHRRNWKYVQYYLDPDSNFFLGDLFDGGRNWDDKQWIKEYTRFNQIFPKKPLRRTVMSLPGNHDIGFGDTVVESSLQRFSSYFGETSSSLDAGNHTFVLLDTISLSDKTNPNVSRVPRQFLDNFAMGSHPLPRILLTHVPLWRDPEQQTCGQLRESKEPFPIQKGHQYQTVIENDISQEILTKIQPEILFSGDDHDHCQISHSYPFQGKTKNAQEITVKSCAMNMGISRPAIQLLSLYNPSDLTMVNAGGEYASKTYQTELCYMPDPYKAIRMYLWGLLFSAAFIAYMHFFPKSFNNRVATIMNRVFTRPDGNTSDLPLPTSISKSKSKKSLTHSKYAVNDTRSIKQFLVNAIVLFVSVMPIFIYFYTVV

Each molecule was assayed on total yeast genomic DNA (assay: Yeast proteome chip probed with labeled genomic DNA). Details: Cy3-labeled genomic DNA, visual inspection.
Assay type: binding
From the text: Protein-DNA and protein-RNA interactions are important for many fundamental biological functions such as transcription regulation, chromosome segregation and maintenance, and RNA transport and processing (Williamson, 2000, Nat. Struct. Biol. 7(10):834-7). To explore the possibility of using a proteome chip to identify proteins that bind to DNA or RNA molecules, total yeast genomic DNA was labeled using Cy3-CTP and Klenow fragment, and polyA^+ was labeled using a biotinylated psoralen-derivative (31). Each probe was incubated with a different proteome chip (FIG. 3A).
The protein-nucleic acid interaction was assayed as follows. The nucleic acid robes were labeled as described by Winzeler et al. (1999, Science 285:901). Blocked proteome chips were washed three to five times in PBS buffer, and the extra liquid on the glass surface was removed by tapping the slides vertically on a KIMWIPE™. 200 μl of labeled nuclei acid probe ([…] poly(dC/dG); 100-300 mM NaCl; 50-300 mM HEPES, pH 7.0-8.5; 10 mM MgCl2) was added to the proteome chip and immediately covered by a hydrophobic plastic cover slip (GRACE BIO-LABS™, USA). After trapped air bubbles were removed, the chip was incubated in a humidity chamber in the dark at room temperature (“RT”) for one hour. To remove the cover slip, the chip was immersed into large volume of PBS buffer(>50 ml), so that the slip would float away. The chip was then moved to a second PBS bath (>50 ml) and washed 3×5 min with shaking in the dark at RT. To completely remove the liquid on the chip, the chip was spun to dryness at 1500-2000 rpm for 5-10 min at RT.
B1 was tested, and the “binding of genomic DNA probe” value was “identified”.
In the case of B2, the “binding of genomic DNA probe” value is reported as “identified”.
With B3 the “binding of genomic DNA probe” value was “identified”.
B4 was tested, and the “binding of genomic DNA probe” value was “identified”.
